Measured values from patent US20240182572A1 (OSE IMMUNOTHERAPEUTICS, published 2024).

Assays:
[1] = molecular target: T1, Recombinant hPD1 (Sino Biologicals, reference 10377-H08H) (human, UniProt Q15116 25-167); test: ELISA, recombinant hPD1 immobilized, detection with peroxidase-labeled anti-human IgG
T1 construct: Bought recombinant protein; also called Human recombinant PD-1 (rPD1) protein; human PD-1
Protocol: Recombinant hPD1 (Sino Biologicals, Beijing, China; reference 10377-H08H) was immobilized on plastic at […] in carbonate buffer (pH 9.2) and purified antibody was added to measure binding.
For activity ELISA assay, recombinant hPD1 (Sino Biologicals, Beijing, China; reference 10377-H08H) was immobilized on plastic at 0.5 μg/ml in carbonate buffer (pH 9.2) and purified antibody were added to measure binding.

[2] = molecular target: T2, biotinylated Human PD1 (AcroBiosystems, reference EP-101) (human, UniProt Q15116 25-167, limits assumed, biotinylated (site not stated)); test: competitive ELISA: hPDL1 immobilized, biotinylated human PD1 at 0.66 µg/ml mixed with the antibody, streptavidin detection
T2 construct: Kit reagent; also called Biotin-PD-1Fc; not shown: Fc part, named only as 'Biotin-PD-1Fc'
Protocol: To measure antagonist activity of the bifunctional antibody, a competitive ELISA assay was performed by PD-1:PD-L1 Inhibitor Screening ELISA Assay Pair (AcroBiosystems; USA; reference EP-101). In this assay, recombinant hPDL1 was immobilized on plastic at 2 μg/ml in PBS pH 7.4 buffer.
Competitive ELISA assay was performed by PD-1:PD-L1 Inhibitor Screening ELISA Assay Pair (Acro Biosystems; USA; reference EP-101). In this assay, recombinant hPDL1 was immobilized on plastic at 2 μg/ml in PBS pH 7.4 buffer.

T2 sequence (Q15116 25-167 limits assumed): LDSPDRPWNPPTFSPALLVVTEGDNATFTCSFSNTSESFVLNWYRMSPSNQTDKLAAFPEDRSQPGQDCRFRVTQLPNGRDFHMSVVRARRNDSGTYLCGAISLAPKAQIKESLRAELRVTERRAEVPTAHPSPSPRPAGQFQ
T1 sequence (Q15116 25-167 limits assumed): as above

B1: anti PD-1*1/SIRPg*1 (bispecific antibody, human IgG1, kappa, N297A)
chain: DKTHTCPPCPAPELLGGPSVFLFPPKPKDTLMISRTPEVTCVVVDVSHEDPEVKFNWYVDGVEVHNAKTKPREEQYASTYRVVSVLTVLHQDWLNGKEYKCKVSNKALPAPIEKTISKAKGQPREPQVYTLPPCRDELTKNQVSLWCLVKGFYPSDIAVEWESNGQPENNYKTTPPVLDSDGSFFLYSKLTVDKSRWQQGNVFSCSVMHEALHNHYTQKSLSLSPGK
heavy: not shown
light: DVVMTQSPLSLPVTLGQPASISCRSSQSLVHANTNTYLEWYQQRPGQSPRLLIYKVSNRFSGVPDRFSGSGSGTDFTLKISRVEAEDVGVYYCFQGTHVPNTFGQGTKLEIKRTVAAPSVFIFPPSDEQLKSGTASVVCLLNNFYPREAKVQWKVDNALQSGNSQESVTEQDSKDSTYSLSSTLTLSKADYEKHKVYACEVTHQGLSSPVTKSFNRGEC
notes: IgG1 N298A isotype, knob-into-hole; also called anti-PD-1*1/SIRP*1; Anti PD-1*1 SIRP*1
How did the EC50 [1] turn out when B1 was run?
The EC50 was 0.33 nM.

What about the IC50 [2] of the same binder?
The IC50 was 6.9 nM.
